Assay results as given in patent publication US20240269307A1 (JIANGSU HENGRUI PHARMACEUTICALS, published 2024).

T1: human Nectin-4 expressed on cells (Nectin4-CHOK1, T47D, MDA-MB-468) (human, UniProt Q96NY8 32-510)
T1 sequence: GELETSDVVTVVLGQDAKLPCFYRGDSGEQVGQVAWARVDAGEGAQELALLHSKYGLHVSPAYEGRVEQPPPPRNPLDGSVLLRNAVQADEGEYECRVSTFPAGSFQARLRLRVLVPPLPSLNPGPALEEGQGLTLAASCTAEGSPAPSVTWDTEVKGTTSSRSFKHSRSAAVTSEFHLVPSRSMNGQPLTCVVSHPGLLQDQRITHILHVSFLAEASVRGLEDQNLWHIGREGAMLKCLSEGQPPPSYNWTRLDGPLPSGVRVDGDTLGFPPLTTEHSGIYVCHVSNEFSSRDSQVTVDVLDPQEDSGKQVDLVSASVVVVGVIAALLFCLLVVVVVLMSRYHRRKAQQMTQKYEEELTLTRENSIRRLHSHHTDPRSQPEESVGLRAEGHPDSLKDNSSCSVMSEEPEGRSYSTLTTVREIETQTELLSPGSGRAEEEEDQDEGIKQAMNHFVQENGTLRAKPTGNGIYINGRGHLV


Assays:
[1] = molecular target: T1, human Nectin-4 expressed on cells …; experiment: cell-based or functional assay
[2] = molecular target: T1, human Nectin-4 expressed on cells …; experiment: cell-based or functional assay; remark: listed apart in the source

Binder | IC50(nM), killing of MDA-MB-468 (++) cells, CTG, 6 days [1] [nM] | IC50(nM), killing of T47D (+++) cells, CTG, 6 days [1] [nM] | IC50 (nM), DT3C antibody endocytosis assay on Nectin4-CHOK1 cells [2] [nM]
ADC-2 (EV201-9-A) (antibody, human IgG1, kappa, V domains shown, compound 9-A (exatecan analog linker-drug) coupled to cysteine sulfhydryls after TCEP reduction; average loading n=3.90 for the whole antibody; positions not given) VH: EVQLVESGGGLVQPGGSLRLSCAASGFTFSSYNMNWVRQAPGKGLEWVSYISSSSSTIYYADSVKGRFTISRDNAKNSLSLQMNSLRDEDTAVYYCARAYYYGMDVWGQGTTVTVSS VL: DIQMTQSPSSVSASVGDRVTITCRASQGISGWLAWYQQKPGKAPKFLIYAASTLQSGVPSRFSGSGSGTDFTLTISSLQPEDFATYYCQQANSFPPTFGGGTKVEIKR | 152 | 193 | –
positive control antibody EV201 (antibody, human IgG1, kappa, V domains shown) VH: EVQLVESGGGLVQPGGSLRLSCAASGFTFSSYNMNWVRQAPGKGLEWVSYISSSSSTIYYADSVKGRFTISRDNAKNSLSLQMNSLRDEDTAVYYCARAYYYGMDVWGQGTTVTVSS VL: DIQMTQSPSSVSASVGDRVTITCRASQGISGWLAWYQQKPGKAPKFLIYAASTLQSGVPSRFSGSGSGTDFTLTISSLQPEDFATYYCQQANSFPPTFGGGTKVEIKR | – | – | 0.5
ADC-1 (NEC49-9-A) (antibody, V domains shown, compound 9-A (exatecan analog linker-drug) coupled to cysteine sulfhydryls after TCEP reduction; average loading n=4.90 for the whole antibody; positions not given) VH: EVQLLESGGGLVQPGGSLRLSCAASGFTFSSYAMSWVRQAPGKGLEWVSAIYSGGSTYYADSVKGRFTISRDNSKNTLYLQMNSLRAEDTAVYYCTRHGGDSGSWSYYYYGMDVWGQGTTVTVSS VL: not shown | 87.5 | 111 | –
fully human antibody molecule NEC49 (antibody, V domains shown) VH: EVQLLESGGGLVQPGGSLRLSCAASGFTFSSYAMSWVRQAPGKGLEWVSAIYSGGSTYYADSVKGRFTISRDNSKNTLYLQMNSLRAEDTAVYYCTRHGGDSGSWSYYYYGMDVWGQGTTVTVSS VL: not shown | – | – | 0.43
